From US9187525B2, “Methods of treating ophthalmic diseases using NPR-B agonists” (Shire Orphan Therapies GmbH, dated 2015)
Numbered stars: 1 amine (or outer) side, 2 acyl side, 3 side chain; on linkers, the order of the positions; unused ones are H or OH. Square brackets hold non-standard residues; d marks the D form. * marks the point of attachment. Ebe = (R)-2-amino-3-(methylsulfanyl)propanoic acid, CSC[C@H](N[*:1])C(=O)[*:2]; 6014 = (E)-dodec-2-enoic acid, CCCCCCCCC/C=C/C(=O)*; 6056 = (2S)-2-octylcyclopropanecarboxylic acid; Pro(trans-4-F) = O=C(O)[C@@H]1C[C@@H](F)CN1; Phe(4-Br) = N[C@@H](Cc1ccc(Br)cc1)C(=O)O; Dodecenoyl(5Z) = CCCCCC/C=C\CCCC(=O)*; Hyp = O=C(O)[C@@H]1C[C@@H](O)CN1; tBuAla = CC(C)(C)C[C@H](N)C(=O)O; dAgb = N=C(N)NCC[C@@H](N)C(=O)O; dAgp = N=C(N)NC[C@@H](N)C(=O)O; KM‑116‑167 = not defined here; NMeL = CN[C@@H](CC(C)C)C(=O)O; NMeK = CN[C@@H](CCCCN)C(=O)O; Tle = CC(C)(C)[C@H](N)C(=O)O; Lauroyl = CCCCCCCCCCCC(=O)*; dDab = NCC[C@@H](N)C(=O)O; NMeA = CN[C@@H](C)C(=O)O; Octanoyl = CCCCCCCC(=O)*; 6054 = not defined here; Nva = CCC[C@H](N)C(=O)O; Hexanoyl = CCCCCC(=O)*; GABA = NCCCC(=O)O; Sar = CNCC(=O)O

T1: natriuretic peptide receptor-B (human)
T1 chain: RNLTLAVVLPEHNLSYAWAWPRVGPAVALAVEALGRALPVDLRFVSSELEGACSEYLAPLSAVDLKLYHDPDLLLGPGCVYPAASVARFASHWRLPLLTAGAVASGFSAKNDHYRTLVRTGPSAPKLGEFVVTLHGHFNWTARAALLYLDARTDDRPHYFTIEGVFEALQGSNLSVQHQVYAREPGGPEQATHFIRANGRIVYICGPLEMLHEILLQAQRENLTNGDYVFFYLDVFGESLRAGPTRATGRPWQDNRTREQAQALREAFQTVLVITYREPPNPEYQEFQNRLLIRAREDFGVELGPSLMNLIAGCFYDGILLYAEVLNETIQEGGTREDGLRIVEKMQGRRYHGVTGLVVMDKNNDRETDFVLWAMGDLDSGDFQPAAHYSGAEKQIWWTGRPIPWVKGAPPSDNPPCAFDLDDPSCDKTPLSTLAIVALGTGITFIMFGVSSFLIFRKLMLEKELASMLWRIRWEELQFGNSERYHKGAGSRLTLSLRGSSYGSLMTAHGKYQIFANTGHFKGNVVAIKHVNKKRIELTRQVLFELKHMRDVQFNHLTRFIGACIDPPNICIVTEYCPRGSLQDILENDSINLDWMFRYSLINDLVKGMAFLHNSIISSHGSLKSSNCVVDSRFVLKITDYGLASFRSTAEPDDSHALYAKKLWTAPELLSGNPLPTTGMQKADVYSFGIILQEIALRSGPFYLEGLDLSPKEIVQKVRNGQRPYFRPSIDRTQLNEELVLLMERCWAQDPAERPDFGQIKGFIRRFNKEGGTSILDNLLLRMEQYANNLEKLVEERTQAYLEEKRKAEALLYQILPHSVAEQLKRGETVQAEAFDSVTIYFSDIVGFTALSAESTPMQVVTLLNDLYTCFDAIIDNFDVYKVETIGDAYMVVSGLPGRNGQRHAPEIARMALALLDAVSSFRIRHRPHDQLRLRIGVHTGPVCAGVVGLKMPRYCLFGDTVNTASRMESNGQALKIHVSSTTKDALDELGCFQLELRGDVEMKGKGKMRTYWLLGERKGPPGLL


Target: T1, natriuretic peptide receptor-B
Test: cell-based or functional assay

EC50 group, cGMP in GTM-3 cells	Binder
≤ 15 µM	Octanoyl-AFRL[Hyp][Tle]DRI-NH2 (not fully specified (some residues); printed as Occ-ala-Phe-arg-Leu-Hyp-Tbg-Asp-Arg-Ile-NH2) [JAL-1226]
≤ 15 µM	Hexanoyl-[Ebe][dA]FGLKLDRI-NH2 [JAL-0541]
≤ 1 µM	Octanoyl-[dA][Phe(4-Br)][dR]L[Hyp]LDRI-NH2 [JAL-1116]
≤ 5 µM	6054-FRL[Hyp][NMeL]DRI-NH2 (not fully specified (some residues); printed as 6054-Phe-arg-Leu-Hyp-Nml-Asp-Arg-Ile-NH2; reading uncertain) [JAL-1239]
≤ 5 µM	Lauroyl-FRL[Hyp][NMeL]DRI-NH2 (not fully specified (some residues); printed as 832-Phe-arg-Leu-Hyp-Nml-Asp-Arg-Ile-NH2) [JAL-1214]
≤ 15 µM	Hexanoyl-[GABA]FGLKLDRIS[Ebe]-NH2 (SMILES CCCCCC(=O)NCCCC(=O)N[C@@H](Cc1ccccc1)C(=O)NCC(=O)N[C@@H](CC(C)C)C(=O)N[C@@H](CCCCN)C(=O)N[C@@H](CC(C)C)C(=O)N[C@@H](CC(=O)O)C(=O)N[C@@H](CCCNC(=N)N)C(=O)N[C@H](C(=O)N[C@@H](CO)C(=O)N[C@@H](CSC)C(N)=O)[C@@H](C)CC) [JAL-0542]
≤ 5 µM	Octanoyl-AFRL[Hyp]IDRI-NH2 (not fully specified (some residues); printed as Occ-ala-Phe-arg-Leu-Hyp-Ile-Asp-Arg-Ile-NH2) [JAL-1224]
≤ 5 µM	Octanoyl-AFRL[Hyp][Ebe]DRI-NH2 (not fully specified (some residues); printed as Occ-ala-Phe-arg-Leu-Hyp-Ebe-Asp-Arg-Ile-NH2) [JAL-1227]
≤ 5 µM	Octanoyl-AFRL[Sar][NMeL]DRI-NH2 (not fully specified (some residues); printed as Occ-ala-Phe-arg-Leu-Sar-Nml-Asp-Arg-Ile-NH2) [JAL-1231]
≤ 5 µM	6056-FRL[Hyp][NMeL]DRI-NH2 (not fully specified (some residues); printed as 6056-Phe-arg-Leu-Hyp-Nml-Asp-Arg-Ile-NH2) [JAL-1240]
≤ 5 µM	{Dodecenoyl(5Z)}-FRL[Hyp][NMeL]DRI-NH2 (not fully specified (some residues); printed as 6015-Phe-arg-Leu-Hyp-Nml-Asp-Arg-Ile-NH2) [JAL-1238]
≤ 5 µM	Octanoyl-AFRLK[NMeL]DRI-NH2 (not fully specified (some residues); printed as Occ-ala-Phe-arg-Leu-Lys-Nml-Asp-Arg-Ile-NH2) [JAL-1228]
≤ 5 µM	Octanoyl-[dA]F[dR]L[Hyp]LDRI-NH2 [JAL-1156_02]
≤ 5 µM	Octanoyl-[dA]F[dR]L[Pro(trans-4-F)]LDRI-NH2 [JAL-1114]
≤ 5 µM	Octanoyl-AFR[Nva][Hyp][NMeL]DRI-NH2 (not fully specified (some residues); printed as Occ-ala-Phe-arg-Nva-Hyp-Nml-Asp-Arg-Ile-NH2) [JAL-1232]
≤ 15 µM	Octanoyl-AFRL[NMeA][NMeL]DRI-NH2 (not fully specified (some residues); printed as Occ-ala-Phe-arg-Leu-Nma-Nml-Asp-Arg-Ile-NH2) [JAL-1230]
≤ 15 µM	Octanoyl-AFR[KM‑116‑167][NMeL]DRI-NH2 (not fully specified (some residues); printed as Occ-ala-Phe-arg-(KM-116-167)-Nml-Asp-Arg-Ile-NH2; reading uncertain) [JAL-1159]
≤ 5 µM	Octanoyl-[dA]F[dDab]LPLDRI-NH2 [JAL-1120]
≤ 5 µM	Octanoyl-AFR[Ebe][Hyp][NMeL]DRI-NH2 (not fully specified (some residues); printed as Occ-ala-Phe-arg-Ebe-Hyp-Nml-Asp-Arg-Ile-NH2) [JAL-1233]
≤ 5 µM	Octanoyl-AFRL[NMeK][NMeL]DRI-NH2 (not fully specified (some residues); printed as Occ-ala-Phe-arg-Leu-Nmk-Nml-Asp-Arg-Ile-NH2) [JAL-1229]
≤ 1 µM	Octanoyl-AFRL[Hyp][tBuAla]DRI-NH2 (not fully specified (some residues); printed as Occ-ala-Phe-arg-Leu-Hyp-Npg-Asp-Arg-Ile-NH2) [JAL-1225]
≤ 5 µM	Octanoyl-[dA]F[dAgb]LPLDRI-NH2 [JAL-1121]
≤ 5 µM	Octanoyl-[dA]F[dAgp]LPLDRI-NH2 [JAL-1122]
≤ 15 µM	Octanoyl-XF[dR]L[Hyp]LDRI-NH2 (not fully specified (some residues); printed as Oct-pip-Phe-arg-Leu-Hyp-Leu-Asp-Arg-Ile-NH2) [JAL-1157_02]
≤ 5 µM	6014-FRL[Hyp][NMeL]DRI-NH2 (not fully specified (some residues); printed as 6014-Phe-arg-Leu-Hyp-Nml-Asp-Arg-Ile-NH2) [JAL-1237]
≤ 5 µM	Octanoyl-[dA]FGL[Pro(trans-4-F)]LDRI-NH2 [JAL-1115]
